In US20240277823A1 (published 2024):

Columns and labels:
6A5 = experiment: BLI; 500 nM antigen
5G10 = experiment: BLI; 500 nM antigen

B1: LA0591 (other)
chain: VNPDQYCPASKKENHNIRIKRTLPPDFQLTEEWLRRLYDIATSASLTEGQIHGICGVCLLQTFQMLAELQEYHSHGPLQGGGYFFNTAPDTDPFDSFRQRYPELDTMLTDAATAYGPAYNTTRLLTLVSAMTMMPQYEWTPSREFTTRSDMHSHIRSLIDSPPGSIWLGLMQRRESDETLRWHALPILRTSQGLIVIQTRVSTMSFELYRLYLTPSTSIVQIINDYLEEADRTLTVLVTIQLEQAYQNLFDFMVSNMNCTGEGENRRGSGGYPTSATVNQCSGGRCALPNW
- Kd (6A5): < 1 pM
- Kd (5G10): < 1 pM
